This experiment deals with T1, Biotinylated AVI-PLpro wild type (SARS-CoV-2 Nsp3 743-1072) (SARS-CoV-2, Wuhan-Hu-1 (MN908947.3), UniProt P0DTD1, biotin (BirA biotinylation of the Avi tag)).
T1 construct: also called biotinylated PLpro; WT PLpro^CoV-2
The experiment in a line: flow cytometry on cells. The conditions noted are these: one partner purified. On the technique in general: Flow cytometry measures light scatter and fluorescence of single cells or particles in a stream.

B1: NbSL17, displayed on yeast (VHH)
VHH: QVQLQESGGGLVQAGGSLRLSCAASGSISDSTRMGWYRQAPGKERELVATITYGSTTYYADSVKGRFTISRDNAKNTVYLQMNSLKPEDTAVYYCAAFDENVYVYRPYHYYWGQGTQVTVSS
As to B1, the binding result was “binds”.

B2: NbSL19, displayed on yeast (VHH)
VHH: QVQLQESGGGLVQAGGSLRLSCAASGSIFFQAYMGWYRQAPGKERELVAGIDAGTTTYYADSVKGRFTISRDNAKNTVYLQMNSLKPEDTAVYYCAAEYFWNYNPYRGTNSTHPYWGQGTQVTVSS
Regarding B2, the binding result is on record as “binds”.

These data come from paper PMC8284666, “Biochemical characterization of protease activity of Nsp3 from SARS-CoV-2 and its inhibition by nanobodies” (PLoS ONE, 2021).
